Laboratory results: patent US12338277

Legend:
Assay in all cases: cell-based or functional assay
[1] = molecular target: HIV-1 Env of pseudovirus CNE17 (HIV-1)
[2] = molecular target: HIV-1 Env of pseudovirus X1193_c1 (HIV-1)
[3] = molecular target: HIV-1 envelope of pseudovirus ZM109F.PB4 (HIV-1)
[4] = molecular target: HIV-1 Env of pseudovirus Ce703010054_2A2 (HIV-1)
[5] = molecular target: HIV-1 envelope spike of pseudovirus CAAN5342.A2 (HIV-1)
[6] = molecular target: HIV-1 Env of pseudovirus CAAN5342.A2 (HIV-1)
[7] = molecular target: HIV-1 Env of pseudovirus TRJO4551.58 (HIV-1)
[8] = molecular target: HIV-1 envelope of pseudovirus Ce2010_F5 (HIV-1)
[9] = molecular target: HIV-1 envelope of pseudovirus HIV-0013095-2.11 (HIV-1)
[10] = molecular target: HIV-1 Env of pseudovirus Q842.d12 (HIV-1)
[11] = molecular target: HIV-1 Env of pseudovirus AC10.0.29 (HIV-1)
[12] = molecular target: HIV-1 Env of pseudovirus 6540.v4.c1 (HIV-1)
[13] = molecular target: HIV-1 Env of pseudovirus 191084 B7-19 (HIV-1)
[14] = molecular target: HIV-1 Env of pseudovirus 231965.c01 (HIV-1)
[15] = molecular target: HIV-1 envelope of pseudovirus 231965.c01 (HIV-1)
[16] = molecular target: HIV-1 Env of pseudovirus QH0692.42 (HIV-1)
[17] = molecular target: HIV-1 envelope of pseudovirus CAP210.2.00.E8 (HIV-1)
[18] = molecular target: HIV-1 Env of pseudovirus R2184.c04 (HIV-1)
[19] = molecular target: HIV-1 Env of pseudovirus ZM135M.PL10a (HIV-1)
[20] = molecular target: HIV-1 envelope of pseudovirus Q769.d22 (HIV-1)
[21] = molecular target: HIV-1 Env of pseudovirus Ce0682_E4 (HIV-1)
[22] = molecular target: HIV-1 envelope of pseudovirus HIV-001428-2.42 (HIV-1)
[23] = molecular target: HIV-1 envelope of pseudovirus 3817.v2.c59 (HIV-1)
[24] = molecular target: HIV-1 envelope of pseudovirus Q23.17 (HIV-1)
[25] = molecular target: HIV-1 Env of pseudovirus PVO.4 (HIV-1)
[26] = molecular target: HIV-1 Env of pseudovirus X1632_S2_B10 (HIV-1)
[27] = molecular target: HIV-1 envelope of pseudovirus Ce704809221_1B3 (HIV-1)
[28] = molecular target: HIV-1 envelope of pseudovirus BJOX015000.11.5 (HIV-1)
[29] = molecular target: HIV-1 Env of pseudovirus Du422.1 (HIV-1)
[30] = molecular target: HIV-1 Env of pseudovirus 620345.c01 (HIV-1)
[31] = molecular target: HIV-1 Env of pseudovirus BJOX015000.11.5 (HIV-1)
[32] = molecular target: HIV-1 Env of pseudovirus 6545.v4.c1 (HIV-1)
[33] = molecular target: HIV-1 envelope of pseudovirus 0260.v5.c36 (HIV-1)
[34] = molecular target: HIV-1 envelope of pseudovirus T278-50 (HIV-1)
[35] = molecular target: HIV-1 envelope of pseudovirus 191821_E6_1 (HIV-1)
[36] = molecular target: HIV-1 Env of pseudovirus WEAU_d15_410_787 (HIV-1)
[37] = molecular target: HIV-1 Env of pseudovirus 263-8 (HIV-1)
[38] = molecular target: HIV-1 envelope of pseudovirus R1166.c01 (HIV-1)
[39] = molecular target: HIV-1 Env of pseudovirus BF1266.431a (HIV-1)
[40] = molecular target: HIV-1 Env of pseudovirus C3347.c11 (HIV-1)
[41] = molecular target: HIV-1 envelope of pseudovirus PVO.4 (HIV-1)
[42] = molecular target: HIV-1 envelope of pseudovirus T251-18 (HIV-1)
[43] = molecular target: HIV-1 envelope of pseudovirus 246F C1G (HIV-1)
[44] = molecular target: HIV-1 Env of pseudovirus CNE5 (HIV-1)
[45] = molecular target: HIV-1 envelope of pseudovirus Q842.d12 (HIV-1)
[46] = molecular target: HIV-1 Env of pseudovirus 6240_08_TA5_4622 (HIV-1)
[47] = molecular target: HIV-1 envelope spike of pseudovirus SC422661.8 (HIV-1)
[48] = molecular target: HIV-1 envelope of pseudovirus 928-28 (HIV-1)
[49] = molecular target: HIV-1 envelope of pseudovirus 6240_08_TA5_4622 (HIV-1)
[50] = molecular target: HIV-1 envelope of pseudovirus CNE21 (HIV-1)

10-1074 (antibody), sequence (VH): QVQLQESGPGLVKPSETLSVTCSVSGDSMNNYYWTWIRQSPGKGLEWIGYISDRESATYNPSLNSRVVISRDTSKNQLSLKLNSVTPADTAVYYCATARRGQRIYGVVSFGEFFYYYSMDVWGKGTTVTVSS
10-1074 (antibody), sequence (V domain): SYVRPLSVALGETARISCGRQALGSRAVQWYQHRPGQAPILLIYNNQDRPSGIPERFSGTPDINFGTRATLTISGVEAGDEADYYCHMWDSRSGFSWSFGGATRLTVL

Substance: 10-1074 (antibody)
- IC80 (TZM-bl neutralization) [1]: 13.3 µg/mL
- IC80 (TZM-bl neutralization) [2]: 0.475 µg/mL
- IC50 (TZM-bl neutralization) [3]: > 50 µg/mL
- IC80 (TZM-bl neutralization) [4]: > 50 µg/mL
- IC50 (TZM-bl neutralization assay) [5]: 7 ng/mL
- IC80 (TZM-bl neutralization assay) [5]: 0.044 µg/mL
- IC80 (TZM-bl neutralization) [6]: 0.036 µg/mL
- IC80 (TZM-bl neutralization) [7]: 0.634 µg/mL
- IC50 (TZM-bl neutralization) [8]: > 50 µg/mL
- IC50 (TZM-bl neutralization) [9]: > 50 µg/mL
- IC80 (TZM-bl neutralization) [10]: > 50 µg/mL
- IC80 (TZM-bl neutralization) [11]: 0.11 µg/mL
- IC80 (TZM-bl neutralization) [12]: > 50 µg/mL
- IC80 (TZM-bl neutralization) [13]: 0.128 µg/mL
- IC80 (TZM-bl neutralization) [14]: > 50 µg/mL
- IC50 (TZM-bl neutralization) [15]: > 50 µg/mL
- IC80 (TZM-bl neutralization) [16]: 0.929 µg/mL
- IC50 (TZM-bl neutralization) [17]: > 50 µg/mL
- IC80 (TZM-bl neutralization) [18]: > 50 µg/mL
- IC80 (TZM-bl neutralization) [19]: 0.367 µg/mL
- IC50 (TZM-bl neutralization) [20]: > 50 µg/mL
- IC80 (TZM-bl neutralization) [21]: > 50 µg/mL
- IC50 (TZM-bl neutralization) [22]: 0.044 µg/mL
- IC50 (TZM-bl neutralization) [23]: 3.15 µg/mL
- IC50 (TZM-bl neutralization) [24]: 6 ng/mL
- IC80 (TZM-bl neutralization) [25]: 0.36 µg/mL
- IC80 (TZM-bl neutralization) [26]: > 50 µg/mL
- IC50 (TZM-bl neutralization) [27]: 0.139 µg/mL
- IC50 (TZM-bl neutralization) [28]: > 50 µg/mL
- IC80 (TZM-bl neutralization) [29]: 0.166 µg/mL
- IC80 (TZM-bl neutralization) [30]: > 50 µg/mL
- IC80 (TZM-bl neutralization) [31]: > 50 µg/mL
- IC80 (TZM-bl neutralization) [32]: > 50 µg/mL
- IC50 (TZM-bl neutralization) [33]: 0.099 µg/mL
- IC50 (TZM-bl neutralization) [34]: 2.15 µg/mL
- IC50 (TZM-bl neutralization) [35]: > 50 µg/mL
- IC80 (TZM-bl neutralization) [36]: 0.375 µg/mL
- IC80 (TZM-bl neutralization) [37]: 6.53 µg/mL
- IC50 (TZM-bl neutralization) [38]: > 50 µg/mL
- IC80 (TZM-bl neutralization) [39]: > 50 µg/mL
- IC80 (TZM-bl neutralization) [40]: > 50 µg/mL
- IC50 (TZM-bl neutralization) [41]: 0.074 µg/mL
- IC50 (TZM-bl neutralization) [42]: 1.08 µg/mL
- IC50 (TZM-bl neutralization) [43]: 0.022 µg/mL
- IC80 (TZM-bl neutralization) [44]: > 50 µg/mL
- IC50 (TZM-bl neutralization) [45]: > 50 µg/mL
- IC80 (TZM-bl neutralization) [46]: 0.306 µg/mL
- IC50 (TZM-bl neutralization assay) [47]: 0.145 µg/mL
- IC80 (TZM-bl neutralization assay) [47]: 0.392 µg/mL
- IC50 (TZM-bl neutralization) [48]: 0.847 µg/mL
- IC50 (TZM-bl neutralization) [49]: 0.068 µg/mL
- IC50 (TZM-bl neutralization) [50]: 0.087 µg/mL

Substance: PGT121 (antibody)
- IC80 (TZM-bl neutralization) [1]: > 50 µg/mL
- IC80 (TZM-bl neutralization) [2]: 0.202 µg/mL
- IC50 (TZM-bl neutralization) [3]: 7.89 µg/mL
- IC80 (TZM-bl neutralization) [4]: > 50 µg/mL
- IC50 (TZM-bl neutralization assay) [5]: 13 ng/mL
- IC80 (TZM-bl neutralization assay) [5]: 0.056 µg/mL
- IC80 (TZM-bl neutralization) [6]: 0.051 µg/mL
- IC80 (TZM-bl neutralization) [7]: 35.3 µg/mL
- IC50 (TZM-bl neutralization) [8]: > 50 µg/mL
- IC50 (TZM-bl neutralization) [9]: > 50 µg/mL
- IC80 (TZM-bl neutralization) [10]: 0.074 µg/mL
- IC80 (TZM-bl neutralization) [11]: 0.169 µg/mL
- IC80 (TZM-bl neutralization) [12]: > 50 µg/mL
- IC80 (TZM-bl neutralization) [13]: 0.128 µg/mL
- IC80 (TZM-bl neutralization) [14]: > 50 µg/mL
- IC50 (TZM-bl neutralization) [15]: > 50 µg/mL
- IC80 (TZM-bl neutralization) [16]: 8.54 µg/mL
- IC50 (TZM-bl neutralization) [17]: 5.08 µg/mL
- IC80 (TZM-bl neutralization) [18]: > 50 µg/mL
- IC80 (TZM-bl neutralization) [19]: 5.88 µg/mL
- IC50 (TZM-bl neutralization) [20]: > 50 µg/mL
- IC80 (TZM-bl neutralization) [21]: > 50 µg/mL
- IC50 (TZM-bl neutralization) [22]: 0.028 µg/mL
- IC50 (TZM-bl neutralization) [23]: > 50 µg/mL
- IC50 (TZM-bl neutralization) [24]: 10 ng/mL
- IC80 (TZM-bl neutralization) [25]: 0.945 µg/mL
- IC80 (TZM-bl neutralization) [26]: > 50 µg/mL
- IC50 (TZM-bl neutralization) [27]: 0.098 µg/mL
- IC50 (TZM-bl neutralization) [28]: > 50 µg/mL
- IC80 (TZM-bl neutralization) [29]: 0.131 µg/mL
- IC80 (TZM-bl neutralization) [30]: > 50 µg/mL
- IC80 (TZM-bl neutralization) [31]: > 50 µg/mL
- IC80 (TZM-bl neutralization) [32]: > 50 µg/mL
- IC50 (TZM-bl neutralization) [33]: 0.054 µg/mL
- IC50 (TZM-bl neutralization) [34]: > 50 µg/mL
- IC50 (TZM-bl neutralization) [35]: > 50 µg/mL
- IC80 (TZM-bl neutralization) [36]: 0.295 µg/mL
- IC80 (TZM-bl neutralization) [37]: 24.6 µg/mL
- IC50 (TZM-bl neutralization) [38]: > 50 µg/mL
- IC80 (TZM-bl neutralization) [39]: > 50 µg/mL
- IC80 (TZM-bl neutralization) [40]: > 50 µg/mL
- IC50 (TZM-bl neutralization) [41]: 0.131 µg/mL
- IC50 (TZM-bl neutralization) [42]: > 50 µg/mL
- IC50 (TZM-bl neutralization) [43]: 0.083 µg/mL
- IC80 (TZM-bl neutralization) [44]: > 50 µg/mL
- IC50 (TZM-bl neutralization) [45]: 0.023 µg/mL
- IC80 (TZM-bl neutralization) [46]: 0.584 µg/mL
- IC50 (TZM-bl neutralization assay) [47]: 0.263 µg/mL
- IC80 (TZM-bl neutralization assay) [47]: 0.714 µg/mL
- IC50 (TZM-bl neutralization) [48]: > 50 µg/mL
- IC50 (TZM-bl neutralization) [49]: 0.128 µg/mL
- IC50 (TZM-bl neutralization) [50]: 0.02 µg/mL
